The record followed here is article PMC5847591.

In the assay the target is NY-ESO-1_(60–72)–HLA-B*07:02 complex (human). As to the kind of experiment: SPR. On the technique in general: SPR reads the build-up and loss of mass on a sensor chip optically.

Sequence of KFJ4 TCR, soluble ectodomain (TRAV13-1 α-chain) (P01848 whole entry, looked up, the tested form may be a part): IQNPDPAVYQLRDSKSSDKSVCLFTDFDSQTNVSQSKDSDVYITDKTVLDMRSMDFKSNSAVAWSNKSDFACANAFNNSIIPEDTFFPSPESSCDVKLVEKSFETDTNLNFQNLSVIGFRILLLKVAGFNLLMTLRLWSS
Sequence of KFJ15 TCR, soluble ectodomain (P01848 whole entry, looked up, the tested form may be a part): as above

As usually defined, the Kd is the free concentration of one partner at which half of the binding sites on the other are occupied at equilibrium, for simple one-to-one binding. The term koff denotes a measure of how fast the partners let go of each other. A lower koff goes with slow dissociation. Regarding “KFJ4 TCR, soluble ectodomain (TRAV13-1 α-chain) (from UniProt P01848)”, the Kd amounted to 52.1 µM and the dissociation rate constant (koff) stood at 0.12 s⁻¹.
The substance “KFJ15 TCR, soluble ectodomain (from UniProt P01848)” showed a dissociation constant (Kd) of 41.5 µM.
The substance “KFJ37 TCR, soluble ectodomain (from UniProt A0A0B4J268 18-107; A0A0B4J1U6 20-113)” came in with a Kd of 40.6 µM and a dissociation rate constant (koff) of 0.109 s⁻¹.
